Source: patent publication US20230257454A1 (STAIDSON BEIJING BIOPHARMACEUTICALS, published 2023)
Where two headings read alike, the source gives them in different places.

How the values were obtained:
[1] = target: T1, native full-length human complement component C5 (human, UniProt P01031 19-673; P01031 678-1676); experiment: SPR (Biacore T200), antibody on CM5 chip, antigen 0-10 nM
T1 construct: mature; The native protein has two disulfide-linked chains (alpha and beta) made from one precursor; also called human native C5
T1 sequence (P01031 19-673 limits assumed, one chain of several): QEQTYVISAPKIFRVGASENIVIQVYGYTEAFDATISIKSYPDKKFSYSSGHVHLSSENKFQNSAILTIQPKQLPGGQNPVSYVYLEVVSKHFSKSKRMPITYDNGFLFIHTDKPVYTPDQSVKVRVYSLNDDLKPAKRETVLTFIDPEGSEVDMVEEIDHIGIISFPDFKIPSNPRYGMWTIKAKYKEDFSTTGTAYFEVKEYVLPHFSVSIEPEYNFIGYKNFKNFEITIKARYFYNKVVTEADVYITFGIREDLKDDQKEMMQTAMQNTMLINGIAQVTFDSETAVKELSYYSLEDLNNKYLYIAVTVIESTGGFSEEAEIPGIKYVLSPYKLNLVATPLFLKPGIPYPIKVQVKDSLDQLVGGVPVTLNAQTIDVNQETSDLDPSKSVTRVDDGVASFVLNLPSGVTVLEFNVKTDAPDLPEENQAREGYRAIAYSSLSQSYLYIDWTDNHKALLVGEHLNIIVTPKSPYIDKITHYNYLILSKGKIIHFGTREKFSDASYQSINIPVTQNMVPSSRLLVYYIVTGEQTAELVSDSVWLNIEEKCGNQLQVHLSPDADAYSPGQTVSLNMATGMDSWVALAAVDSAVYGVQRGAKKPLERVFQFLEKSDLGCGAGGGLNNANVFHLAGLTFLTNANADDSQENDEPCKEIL
Experimental: (§1) The affinities for eC5a and c5 at various concentrations were measured. […] The concentrations of 0.625 and 0 nM were repeated once. Using the SPR technology, the association and dissociation rates were measured, and binding affinity was determined.

[2] = target: T2, human C5a (source not stated) (human, UniProt P01031 678-751); experiment: cell-based or functional assay
T2 sequence: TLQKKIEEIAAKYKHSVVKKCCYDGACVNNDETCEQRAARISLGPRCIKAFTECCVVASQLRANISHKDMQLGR

[3] = target: T2, human C5a (source not stated); experiment: cell-based or functional assay; remark: listed apart in the source
[4] = target: T3, human recombinant C5a (human, UniProt P01031 678-751); experiment: ELISA, plate coated with human rC5a, scFv titrated, OD410
T3 construct: Full-length human C5a; also called rC5a; human C5a
T3 sequence: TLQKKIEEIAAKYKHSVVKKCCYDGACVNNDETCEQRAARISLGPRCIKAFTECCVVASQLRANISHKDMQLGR
Experimental: Monoclonal scFv antibodies were selected and subjected to ligand binding assays. The binding assay was designed to identify scFv antibodies that bound human recombinant C5a or endogenous C5a. Briefly, a 96-well plate was coated with human rC5a or eC5a in PBS at 0.1 µg/well and left overnight at 4° C. Before loading the scFv antibodies, the plates were washed with TBST, blocked for 1-2 hours at 37° C. using 5% milk and washed again with TBST. Each scFv sample was first diluted to 10 µg/mL, and 150 µL was added to the first row of wells. The 10 µg/mL scFv samples were then serially diluted at a 1:3 ratio and added to the remaining wells. After incubating for 1 hour at 37° C., followed by washing with TBST 6 times, 100µl of the primary antibody and secondary antibody mixture (mouse anti-flag (1:2500) and anti-mouse FC-AP (1:2000)) was added to each well. After incubation for 1 hour under 37° C., the plate was washed 3 times using TBST. pNPP was then added at 50 µL/well and incubated for 10-20 minutes at 37° C. 50 µL 3 M NaOH was used to stop the reaction. The ELISA results (OD410) were then analyzed and the binding curves were generated by PRISM.

[5] = target: T4, C5a-E32A; experiment: ELISA on the coated C5a protein, antibody titrated, OD410
T4 single chain: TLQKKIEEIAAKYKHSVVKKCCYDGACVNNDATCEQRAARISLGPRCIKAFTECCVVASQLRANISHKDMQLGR

[6] = target: T5, C5a-Q36A; experiment: as above
T5 single chain: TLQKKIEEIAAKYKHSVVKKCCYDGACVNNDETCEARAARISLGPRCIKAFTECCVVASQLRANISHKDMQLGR

[7] = target: T6, C5a-T33A; experiment: as above
T6 single chain: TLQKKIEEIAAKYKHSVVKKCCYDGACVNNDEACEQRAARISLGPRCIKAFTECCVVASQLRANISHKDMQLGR

[8] = target: T7, C5a-R40A; experiment: as above
T7 single chain: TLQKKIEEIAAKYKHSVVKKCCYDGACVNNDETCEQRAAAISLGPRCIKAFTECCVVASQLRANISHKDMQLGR

[9] = target: T1, native full-length human complement …; experiment: ELISA, plate coated with human native C5, full-length antibody titrated, OD410
[10] = target: T1, native full-length human complement …; experiment: SPR (Biacore T200), antibody on CM5 chip, antigen 0-10 nM; SPR (Biacore T200), Cab05-IgG4 on CM5 chip, C5 at 0-10 nM: no signal, given only as a lower bound on Kd
Experimental: as §1

[11] = target: T8, human endogenous C5a (human, UniProt P01031 678-751, limits assumed); experiment: SPR (Biacore T200), antibody on CM5 chip, antigen 0-10 nM
T8 construct: Endogenous human C5a; also called eC5a
T8 sequence: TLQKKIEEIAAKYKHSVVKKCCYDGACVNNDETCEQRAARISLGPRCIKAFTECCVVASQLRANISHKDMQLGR
Experimental: as §1

[12] = target: T5, C5a-Q36A; experiment: ELISA on the coated C5a protein, antibody titrated, OD410
[13] = target: T6, C5a-T33A; experiment: as above
[14] = target: T7, C5a-R40A; experiment: as above

B1: INab308 (antibody, V domains shown)
VH: QVQLQQSGPQLVRPGTSVKISCKASGYSFTTFWMDWVKQRPGQGLEWIGRIDPSDSESRLDQRFKDRATLTVDKSSSTVYMQLSSPTSEDSAVYYCARGNDGYYGFAYWGQGTLVTVSS
VL: DIVLTQSPASLAVSLGQRATISCKASQSVDYDGDSYMKWYQQKPGQPPKLLIYAASNLQSGIPARFSGSGSGTDFTLNIHPVEEEDAATYYCQQSNEDPYTFGGGTKLEIK
Question: With B1 as the binder, how does the Kd [1] read?
Answer: 0.743 nM

Question: And the koff [1]?
Answer: 0.000218 s⁻¹

Question: What about the kon [1] of the same binder?
Answer: 293000 M⁻¹ s⁻¹

B2: Cab05 scFv (scFv, V domains shown)
VH: EMQLVESGGGLVQPGGSLRLSCAASGFTFSDYYMQWVRQAPGKGPEWVGLIRNKAVGGTTQYAASVKGRFTISRDDSKNSVYLQMNSLKTEDTAVYYCVSRAGPPGLSWGQGVLVTVSS
VL: DIVMTQSPLSLPVTPGEPASISCRSSQSLLASDGYNYIDWYLQKPGQSPQLLIYGGSNRASGVPDRFSGSGSGTDFTLKISRVEAEDVGVYFCLQHRALPPTFGQGTKLEIK
notes: scFv
Question: Which results are given for B2?
Answer: ROS IC50 [2]: 1.56 nM; ROS IC50 [3]: 1.56 nM; EC50 (read off the curve) [4]: ~0.03 µg/mL

B3: Cab44-IgG1 (antibody, V domains shown)
VH: EVQLVESGGGLVQPGGSLRLSCAASGFTFSNYYIQWVRQAPGKGPEWVGLIRNKAIGETTEFAASVKGRFTISRDDSKNSVYLQMNSLKTEDTAVYYCAGRLGPPGLTWGQGVLVTVSS
VL: DIVMTQSPLSLPVTPGEPASISCRSSQSLLATDGYEYLDWYLQKPGQSPQLLIYGASNRASGVPDRFSGSGSGTDFTLKISRVEAEDVGVYYCLQHKALPPTFGQGTKLEIK
notes: Full-length human IgG1
Question: Which “ROS IC50” value [2] does the source give for B3 here?
Answer: 0.51 nM

Question: Does B3 bind [5]?
Answer: binds

Question: Does B3 bind [6]?
Answer: binds

Question: Does B3 bind [7]?
Answer: binds

Question: Does B3 bind [8]?
Answer: binds

B4: Cab05-IgG4 (antibody, V domains shown)
VH: EMQLVESGGGLVQPGGSLRLSCAASGFTFSDYYMQWVRQAPGKGPEWVGLIRNKAVGGTTQYAASVKGRFTISRDDSKNSVYLQMNSLKTEDTAVYYCVSRAGPPGLSWGQGVLVTVSS
VL: DIVMTQSPLSLPVTPGEPASISCRSSQSLLASDGYNYIDWYLQKPGQSPQLLIYGGSNRASGVPDRFSGSGSGTDFTLKISRVEAEDVGVYFCLQHRALPPTFGQGTKLEIK
notes: Full-length human IgG4 with a human kappa or lambda light chain constant domain
Question: How did the “EC50 (read off the curve)” value [9] turn out when B4 was run?
Answer: ~0.03 µg/mL

Question: And the Kd [10]?
Answer: > 100 nM

Question: And the Kd [11]?
Answer: 0.105 nM

Question: What about the koff [11] of the same binder?
Answer: 4.22e-05 s⁻¹

Question: And the kon [11]?
Answer: 402000 M⁻¹ s⁻¹

B5: Cab45-IgG1 (antibody, V domains shown)
VH: EVQLVESGGGLVQPGGSLRLSCAASGFTFSDYYIQWVRQAPGKGPEWVGLIRNKAVGGTTTYAASVKGRFTISRDDSKNSAYLQMNSLKTEDTAVYFCVSRAGPPGLSWGQGVLVTVSS
VL: DIVMTQSPLSLPVTPGEPASISCRSSQNLLATDGYTYLDWYLQKPGQSPQLLIYGGSKRASGVPDRFSGSGSGTDFTLKISRVEAEDVGVYYCLQHRALPPTFGQGTKLEIK
notes: Full-length human IgG1
Question: Which results are given for B5?
Answer: ROS IC50 [2]: 0.64 nM; binding result [12]: binds; binding result [13]: binds; binding result [14]: binds
